The text below walks through data of article PMC11581024 (bioRxiv, 2024).

For orientation: stoichiometry N means a count of units in the complex or per binding partner.

The series concerns the molecule itself. As to the kind of experiment: SEC-MALS. For orientation: In gel filtration, larger molecules generally elute earlier.

B1: Treponema denticola ComFB (natural protein)
chain: MIIHNVMEDLVYTEVNKLFDEAEEKKESWLTCSCMQCRVDTMCYVLNRVKPRYIKSGRGLAHFLKFEKTEKVQIMADITSLVIEGMHRVLSTKRPHDHEPIFETENTPVFNFPAITGNILNGSNFRPMEDATISLKMNGELVSQMSILWDNPYTISEKTPGAYTFCPKAIPAKNAGDKEKFIFVLKAEKEGFDPTNFSFDIELTAEDMVKSPLDSSNFYQIKNLFLCEHSEEE
As to B1, the “stoichiometry N” value is 2.
